Assay type in all cases: cell-based, human
The subject of data set [1] is GSC7 cells. In words: Flow cytometry of mNGreen reporter in GSC7. On the procedure:
(§1) Cells were seeded at the required density. The following day the transfection was carried out. For this the Plus reagent and Lipofectamine LTX (Life Technologies, 15338030) were each diluted in half the volume of Opti-MEM I Reduced-Serum Medium (further referred to as Optimem) (Life Technologies, 31985062). Following this step, the Plus reagent/Optimem premix was added to all DNA samples followed by the Lipofectamine LTX/Optimem premix. The transfection mix was incubated for 5 min at room temperature and then carefully dropped on the cells. Generally, no media change was carried out. Cells were analysed two days following transfection.
For flow cytometry, cells were detached, pelleted and resuspended in an appropriate volume of flow cytometry buffer (1% BSA in PBS, v/v). Cells were stained with Draq7 (Abcam, ab109202, f.c. 0.1 μM) as a live/dead stain and analysed using the BD LSRFortessa cell analyser (4 lasers, BD Bioscience). Analysis of flow cytometry data was carried out in the FlowJo Analysis software (FlowJo, version 10.6.2).
A general note: A flow cytometer gives signals particle by particle.

Data set [2] relates to GSC7 cells. Briefly: Nano-Glo Dual-Luciferase Reporter (Nanoglo DLR) enhancer assay in GSC7.
From the text: We chose an arrayed library format, with 160 bp enhancer fragments individually cloned into separate plasmids and arrayed in 96 well plates. These 160 bp were synthesized as a single pool of oligos, then randomly cloned into the plasmid and isolated. 20 bp×2 were needed for PCR amplification of the pool and so a library of 200 bp fragments was synthesized (Twist Biosciences). To meet our oligo synthesis strategy, ChIP-seq peaks expressed by GSCs were merged into a single oligo. This oligonucleotide pool was PCR-amplified (using limited cycles to reduce bias and ‘jackpot’ products meaning products which are easier to amplify will overtake the oligonucleotide pool) and cloned into the expression vector by an efficient Golden Gate reaction. 4579 individual plasmids were then randomly picked, isolated and plated as an arrayed plasmid DNA library on 96 well plates (×48). The bacterial colony picking and production of plasmid minipreps were supported by the Edinburgh Genome Foundry (S. Rosser). This library was then screened using the optimised Nanoglo DLR assay (Nano-Glo Dual-Luciferase Reporter Assay, Promega) in 384 well format. Each plate was transiently transfected together with PGK-FFLuc in a 1:10 ratio into GSC7 cells. 2 days later a Nanoglo DLR assay was performed and assayed on a plate reader.
Cells were seeded in 384 well plates using a multidrop and transfected the following day using the CyBio Felix. Two days later the experiment was terminated with a Nanoglo DLR assay and all hits with a fold change to mCMV greater than 10 were Sanger sequenced and mapped back to the genome.
as §1
This assay consists of two steps. […] First, the Firefly Luciferase activity is measured which allows to normalise to transfection efficiency. In a second step, the activity of Nanoluc is determined which is the readout of the plasmid of interest. […] 20 μl cell lysate in 96 well format or 25 μl cell lysate in 384 well format was then transferred into the corresponding opaque white plate and luminescence was measured at for 0.1 s per well using the Ensight Multimode Plate Reader. […] Nanoluc activity was measured for 0.1 s per well, again using Ensight Multimode Plate Reader. […]
Background: A reporter such as luciferase makes a cellular process visible.

The subject of data set [3] is patient-derived glioblastoma cell lines. In words: SSE-7 mCherry expression across patient-derived glioblastoma cell lines. An excerpt:
The experiment described in Example 8 was repeated in five patient-derived glioblastoma cell lines (E17, E21, E28, E31, E34).

B1: SSE-1: synthetic super-enhancer ID1101_ID2904_ID0109_ID4328, SEQ ID NO: 64 (nucleic acid)
DNA: GTGAGTGTGACTCACATGCTGGCATCAGAGCCCCTCTTAGAGCTTAGAACACTGGGCCTCTGTCAGGCAAAGAAAAGGAGTCCCTATGAATAGCCATCTCCACAAATAGCAGTTACTGTCACTTCTTAAAAGACACAAGCATGGCTGGAGACCGGCACTGTGCATGTTCTTGGGAAAAAGTGGTATTTAATGAAGGCGCTTTGAGCTGAATCAAAGAGCCTCATTCTTCTGAAAGTCCTTCTTCCTAGTCTCTGCATCCGGCTCCTATCAAAGGAAATCCACAGCTTTGGCTTTTCGTTGCTGTTGTCATGGAAATCGTTGAAATTGGATCCTGAGGAGAATGTCACCACCTCTTTGACAATAACTAGCTTTCAGAGCTGAACACAGTGAATCTGGATACTGTGTATATGTTTAAATGAGTTAGGAAATGACATCACATTATTTATTTCTTCTTTTGTGACTTAGTAAATTGACTTGGCCTACAATCTATTCTCCATAGTCATCAGAGTTTCTTTAAAGGCACGGTTCAGACAATGGCACCCTCTGTTCCAAACCCTCCAGGGCTTCCTATTTCACTTAGCATAAAAACCAAAGTCCTCACAATGACCGACAAGTCTTCACACAATGTGCCCCTTCATTG
As to B1, in the data set on GSC7 cells [1], the “activity compared with full CMV by flow cytometry” value is reported as “higher than CMV”. For the same molecule, in the data set on GSC7 cells [2], the “activity compared with full CMV by Nanoglo DLR assay” value is “higher than CMV”.

B2: SSE-2: synthetic super-enhancer ID0109_ID4328_ID0876_ID2339, SEQ ID NO: 65 (nucleic acid)
DNA: GAAATTGGATCCTGAGGAGAATGTCACCACCTCTTTGACAATAACTAGCTTTCAGAGCTGAACACAGTGAATCTGGATACTGTGTATATGTTTAAATGAGTTAGGAAATGACATCACATTATTTATTTCTTCTTTTGTGACTTAGTAAATTGACTTGGCCTACAATCTATTCTCCATAGTCATCAGAGTTTCTTTAAAGGCACGGTTCAGACAATGGCACCCTCTGTTCCAAACCCTCCAGGGCTTCCTATTTCACTTAGCATAAAAACCAAAGTCCTCACAATGACCGACAAGTCTTCACACAATGTGCCCCTTCATTGGAGCAGGCAGTCATTTGGTTCCCTTCTCTGAATGCATTGGCTCTGATCCACGGCGCCTCAGGAAGTGAAAGGGAGCAGGCAGTGAGGCCAAGCCATGAATGTTGGGCCCTTTTCTTAGAAAACAAAGGGTTCACTTTAGGCTAGGAGGAAACATCCGGGGGTCGGCGGAACTGAGTCTCCTTTGTGGAGCCCCTCATTTGCATGATAAACCCCGGGGACAAAGTGTGTTCTTGTTACTTGGACTGTTTCTTGGAAACTGCTGCTACCTGGAGCGAGTGAACACAGGGCAAGTATTCTCGCCCACAGCAACGTGTCATTGA
For B2, the “activity compared with full CMV by flow cytometry” value in the data set on GSC7 cells [1] is “higher than CMV”. The “activity compared with full CMV by Nanoglo DLR assay” value in the data set with GSC7 cells [2] is reported as “higher than CMV”.

B3: SSE-5: synthetic super-enhancer ID2706_ID3547_ID3548_ID3146, SEQ ID NO: 68 (nucleic acid)
DNA: CCAATGCCAAAGCAGTTTACATTTTACAGATGCCATGGCAACCGTCAGGAAGTTACCCTGTATGGTCTAAGAGGGGGAGGAACCCTCAGTTCCGGGAATTGCCCGCCCCTTTCCCGGAAACTCATGAATAATCCACCCCGTTCCCCCTTAACAAAAGCCACCTCCTCCCTCCTGAAAGGCACCATTGGTCACCAAAACAAGTCCCCTTTGTCCTCCACCGCAGCTGGAGCCTGGGCCTTCCATCTCCTGGGGGCCAATAAAACCCCAGATCAGCCAATCCTCCCTCCCTGGCTCTGTCATCCAAACACTCCCCTGCAACAGATGTACACACAGAGCCCATTGTTTTCTCTAGAAATGTAAACTGCACGTCACAGTTACTCCATACACACCACAAACAGACTCCCTTTGTTCTCAGGATATGTGTTGACACAAGAATATGTCATCCTCTCAGCTCCAGACTGAAAGAGATGGGTGTGTGGGAGTGGGGGAAGCTGAGCTCCAGGCAGACAGCACAGAGCCGCCTTGTCCAACCCAGCCAGGTGCCATGGCAACCAACAAAGGCCCCATTGTCCCGTGTCTGCTGGGCCTTCCTGAGGCTCTGGGGTCAGAGTCCCGGTT
For B3, in the data set on GSC7 cells [1], the “activity compared with full CMV by flow cytometry” value is reported as “higher than CMV”. In addition, in the data set with GSC7 cells [2], the “activity compared with full CMV by Nanoglo DLR assay” value is “higher than CMV”.

B4: SSE-3: synthetic super-enhancer ID0876_ID2339_ID1737_ID0663, SEQ ID NO: 66 (nucleic acid)
DNA: GAGCAGGCAGTCATTTGGTTCCCTTCTCTGAATGCATTGGCTCTGATCCACGGCGCCTCAGGAAGTGAAAGGGAGCAGGCAGTGAGGCCAAGCCATGAATGTTGGGCCCTTTTCTTAGAAAACAAAGGGTTCACTTTAGGCTAGGAGGAAACATCCGGGGGTCGGCGGAACTGAGTCTCCTTTGTGGAGCCCCTCATTTGCATGATAAACCCCGGGGACAAAGTGTGTTCTTGTTACTTGGACTGTTTCTTGGAAACTGCTGCTACCTGGAGCGAGTGAACACAGGGCAAGTATTCTCGCCCACAGCAACGTGTCATTGACAACGTTTTTGGCAGATGCAGCTCTTTCTGAACAGTAAGTCATTGTTGAGTGACATGAATAGGACGAGAGCTACAGAAAATGAAGGTTTCAAAAGATTGTCTAAAACAAAAGTCCTTTCAGTCCCGTATTCAGAGTTATAAATTCCGATTAGCCAAGGAAGCTCTGAGTCTAAATACCAGCAAAGCTCAGCCCCTGCAAGTGGGGACGAATTATTTGAAAGGTCATCCTAGAGACACTGAACAAAGGGCCTCTAGCAGCT
With B4, the “activity compared with full CMV by flow cytometry” value in the data set on GSC7 cells [1] was “higher than CMV”. For the same molecule, the “activity compared with full CMV by Nanoglo DLR assay” value in the data set with GSC7 cells [2] is “higher than CMV”.

B5: SSE-7: synthetic super-enhancer ID4310_ID4428_ID0785_ID3836, SEQ ID NO: 70 (nucleic acid)
DNA: TTGTCCTGCCTTTGAGAACACTGGAAGGGCACTGAAGGCTGACCAGCATGCACCTCACCCCACCTCCTCTCTGTCTCATCCTCAGCCATCTAAGCGGGAGACTCATCAGGCTTAAATTCTCATTCTTATCCAAGATTCTTCTGCTTCAAATGAGTCTAAATGGAGATCCTCCCATAAAGGGAGTTCTGTTTGGGCTTCCCTTGGAAGTCCATTGAAAGCGTTTCACATTTCAATGCTTCTTTACATTCTCCTCTAGAATGAATCTGGAAGGGCCATTTCATTCCAGCCCTATCAGATTTACTACTTCCTCCTGTAAGAATGAACTGGGCCCAGCTGGGCATTTGCATCAAAGTGCCTCACCAGAGTTCCCAGCTGCTCTGGCAGAGTGCCCAGGCTTGCCCCAGAGCCCAAACAGAATGCTCTTTGAGATGCCTCTGGTTTTCATACCCTTCCAGGGGAGCAGTTTCCTGGCTGTGTCGTCAGATACTGTGGTTTACGCTGTTCCGGAGTCTGGAGGTCTGTGTGCCTTTGATCTCTTTCCCAACTAATTTGCACAGCTGCTGTGGAGGCCCTCATGAATGACCTCTTTCTTTCCTTTCT
For B5, in the data set with GSC7 cells [1], the “activity compared with full CMV by flow cytometry” value is listed as “higher than CMV”. In addition, the mCherry expression entry in data set [3] (E21, E31 and E34) is “lower frequency of expression”; in data set [3] (GSC7, E17 and E28) it was “highly expressed and comparable to full-length CMV”.
